One series has as its system S. Aureus ATCC 29213. Description: Minimum Inhibition Concentrations (MICs) Test. Type of series: cell-based, Staphylococcus Aureus.
The subject of a further series is E. faecalis ATCC 29302. Description: Minimum Inhibition Concentrations (MICs) Test. Type of series: cell-based, Enterococcus Faecalis.
The subject of the next series is E. faecalis (ATCC 51559). Briefly: In vivo animal study, sepsis in mice. The settings on record: 10 mg/kg/dose i.v. twice a day, day 1 to day 3. Set-up: species or system ICR female mice. Here is the method:
12 ICR female mice with an average body weight of 27 g to 30 g were used in this experiment. Mice had free access to water and food at all time. Sepsis was induced in mice by intravenous (i.v.) injection of […] cfu/mouse of E. faecalis (ATCC 51559) on day 0. The mice were randomized into the following four treatment groups at the start of the experiment:
Each mouse received 10 mg/kg/dose of the medication by intravenous route, twice a day from day 1 to day 3, for a total of 6 doses. Mice were anesthetized and blood was taken from the orbital sinus on day 1, day 2, and day 3. The blood sample was diluted with PBS, plated on Brain Heart infusion agar (BHI agar; Difico, Detroit, Mich., USA) and cultured for colony formation unit.
Data were expressed as mean±SD and the statistical analysis was performed using SigmaStat®. Differences were considered to be significant if the P value was <0.05.

The subject of another series is E. faecalis ATCC 700221. Description: Minimum Inhibition Concentrations (MICs) Test. The series is classed as cell-based, Enterococcus Faecalis.
For the next series, the system named is S. Aureus ATCC 700699. Description: Minimum Inhibition Concentrations (MICs) Test. Type of series: cell-based, Staphylococcus Aureus.
The test system of another series is E. faecalis ATCC 51299. Description: Minimum Inhibition Concentrations (MICs) Test. The series is classed as cell-based, Enterococcus Faecalis.
A further series has as its system E. faecalis ATCC 51559. Description: Minimum Inhibition Concentrations (MICs) Test. Type of series: cell-based, Enterococcus Faecalis.
For another series, the system named is E. faecalis ATCC 33186. Description: Minimum Inhibition Concentrations (MICs) Test. The series is classed as cell-based, Enterococcus Faecalis.
For the next series, the system named is Dbv29. Description: Relative enzymatic activities of Dbv29 mutants. The series is classed as biochemical, Nonomuraea sp. ATCC39727. The following applies: relative to WT.

Substitutions are numbered along the chain they refer to. In names and notes the source's numbering stands. In brackets after ≈: the same amount, converted by molar mass.

For orientation: MIC means the smallest concentration in the dilution series that meets the test's criterion for growth inhibition. A low value points to inhibition by little substance. For `CN[C@H](CC(C)C)C(=O)N[C@H]1C(=O)N[C@@H](CC(N)=O)C(=O)N[C@H]2C(=O)N[C@H]3C(=O)N[C@H](C(=O)N[C@H](C(=O)O)c4cc(O)cc(O)c4-c4cc3ccc4O)[C@H](O)c3ccc(c(Cl)c3)Oc3cc2cc(c3O[C@@H]2O[C@H](CO)[C@@H](O)[C@H](O)[C@H]2O[C@H]2C[C@](C)(N)[C@H](O)[C@H](C)O2)Oc2ccc(cc2Cl)[C@H]1O` [Compound 1, vancomycin], the MIC in the series with S. Aureus ATCC 29213 (Staphylococcus aureus, ATCC29213) was 1 µg/mL (≈ 0.69 µM); with E. faecalis ATCC 29302 (Enterococcus faecalis, ATCC29302) it was 1 µg/mL (≈ 0.69 µM); in the series on E. faecalis ATCC 700221 (Enterococcus faecalis, ATCC700221), greater than 64 µg/mL; in the series with S. Aureus ATCC 700699 (Staphylococcus aureus, ATCC700699), 16 µg/mL (≈ 11 µM); in the series on E. faecalis ATCC 51299 (Enterococcus faecalis, ATCC 51299 / VRE), greater than 64 µg/mL; in the series with E. faecalis ATCC 51559 (Enterococcus faecalis, ATCC 51559 / VRE), greater than 32 µg/mL. Besides, the MIC against E. faecalis ATCC 33186 (Enterococcus faecalis, ATCC33186) came to 4 µg/mL (≈ 2.76 µM). In addition, the “whole blood bacterial counts over the 3-day period” value in the series on E. faecalis (ATCC 51559) was “suppressed”.

Take Teicoplanin [Compound 4]: the MIC in the series with S. Aureus ATCC 29213 (S. Aureus ATCC 29213, methacillin-sensitive strain) is 0.5 µg/mL; in the series on E. faecalis ATCC 29302 (E. faecalis ATCC 29302, standard strain, no growth in duplicate), 0.125 µg/mL; with E. faecalis ATCC 700221 (E. faecalis ATCC 700221, resistant to vancomycin), greater than 32 µg/mL; in the series on S. Aureus ATCC 700699 (S. Aureus ATCC 700699, resistant to methacillin, reduced vancomycin susceptibility), 8 µg/mL; in the series on E. faecalis ATCC 51299 (E. faecalis ATCC 51299, low level VRE) it was 0.5 µg/mL; in the series with E. faecalis ATCC 51559 (E. faecalis ATCC 51559, multidrug-resistant strain (VRE)), greater than 32 µg/mL. Moreover, the MIC against E. faecalis ATCC 33186 (E. faecalis ATCC 33186, antibiotics sensitive strain) is 0.25 µg/mL. Also, in the series with E. faecalis (ATCC 51559), the “whole blood bacterial counts over the 3-day period” value is given as “suppressed”.

B1: I401W (protein)
chain: MTGGTGADAASAGASSTRPELRGERCLPPAGPVKVTPDDPRYLNLKLRGANSRFNGEPDYIHLVGSTQQVADAVEETVRTGKRVAVRSGGHCFEDFVDNPDVKVIIDMSLLTEIAYDPSMNAFLIEPGNTLSEVYEKLYLGWNVTIPGGVCGGVGVGGHICGGGYGPLSRQFGSVVDYLYAVEVVVVNKQGKARVIVATRERDDPHHDLWWAHTGGGGGNFGVVTKYWMRVPEDVGRNPERLLPKPPATLLTSTVTFDWAGMTEAAFSRLLRNHGEWYERNSGPDSPYTGLWSQLMIGNEVPGMGESGFMMPIQVDATRPDARRLLDAHIEAVIDGVPPAEVPEPIEQRWLASTPGRGGRGPASKTKAGYLRKRLTDRQIQAVYENMTHMDGIDYGAVWLWGYGGKVNTVDPAATALPQRDAILKVNYITGWANPGNEAKHLTWVRKLYADVYAETGGVPVPNDVSDGAYINYPDSDLADPGLNTSGVPWHDLYYKGNHPRLRKVKAAYDPRNHFHHALSIRP
For B1, the Relative activity with Dbv29 amounted to 0.02.

B2: R360L/T366A (protein)
chain: B1 chain with R360L, T366A, W401I
As for B2, the Relative activity in the series on Dbv29 is 0.03.

B3: R360L (protein)
chain: B1 chain with R360L, W401I
Consider B3, for which, in the series on Dbv29, the Relative activity is on record as 0.23.

B4: S364K (protein)
chain: B1 chain with S364K, W401I
Turning to B4, in the series with Dbv29, the Relative activity is on record as 0.04.

B5: C26A (protein)
chain: B1 chain with C26A, W401I
Consider B5, for which the Relative activity in the series on Dbv29 is 1.11.

B6: Y453F (protein)
chain: B1 chain with W401I, Y453F
B6: the Relative activity in the series with Dbv29 came to 0.82.

B7: R360E (protein)
chain: B1 chain with R360E, W401I
B7 returned a Relative activity in the series on Dbv29 of 0.76.

B8: Y370F/Y403F (protein)
chain: B1 chain with Y370F, W401I, Y403F
Turning to B8, the Relative activity in the series on Dbv29 came to 0.05.

B9: N44A (protein)
chain: B1 chain with N44A, W401I
Turning to B9, the Relative activity in the series with Dbv29 worked out at 0.87.

B10: R360E/T366E (protein)
chain: B1 chain with R360E, T366E, W401I
In the series on Dbv29, B10 yielded a Relative activity of 0.03.

B11: Y470F (protein)
chain: B1 chain with W401I, Y470F
In the series on Dbv29, B11 displayed a Relative activity of 0.21.

B12: C92A (protein)
chain: B1 chain with C92A, W401I
Regarding B12, the Relative activity in the series with Dbv29 is reported as 0.95.

B13: S364R (protein)
chain: B1 chain with S364R, W401I
B13 gave a Relative activity in the series on Dbv29 of 0.08.

B14: Y473F (protein)
chain: B1 chain with W401I, Y473F
For the molecule B14, the Relative activity in the series on Dbv29 was determined as 0.23.

B15: R41A/N44A (protein)
chain: B1 chain with R41A, N44A, W401I
With B15, the Relative activity in the series on Dbv29 was found to be 0.59.

B16: Y403F (protein)
chain: B1 chain with W401I, Y403F
B16 came in with a Relative activity in the series on Dbv29 of 0.65.

B17: Y370F (protein)
chain: B1 chain with Y370F, W401I
Turning to B17, the Relative activity in the series with Dbv29 is given as 0.10.

B18: Y428F/Y453F (protein)
chain: B1 chain with W401I, Y428F, Y453F
B18 gave a Relative activity with Dbv29 of 1.08.

B19: R41A (protein)
chain: B1 chain with R41A, W401I
In the series on Dbv29, B19 showed a Relative activity of 0.72.

B20: Y165W (protein)
chain: B1 chain with Y165W, W401I
Turning to B20, in the series with Dbv29, the Relative activity is given as 0.03.

B21: R360L/T366E (protein)
chain: B1 chain with R360L, T366E, W401I
For B21, in the series with Dbv29, the Relative activity was 0.01.

B22: Y165F (protein)
chain: B1 chain with Y165F, W401I
Consider B22, for which the Relative activity with Dbv29 was determined as 0.70.

B23: T366L (protein)
chain: B1 chain with T366L, W401I
In the case of B23, the Relative activity with Dbv29 is given as 0.13.

B24: Y428F (protein)
chain: B1 chain with W401I, Y428F
In the series on Dbv29, B24 registered a Relative activity of 1.00.
